Assay results as given in the RNAGym collection of RNA variant scans (doi:10.7554/elife.80360).

B1: Hammerhead Ribozyme (parent)
chain: ACCGGAUGUGCUUUCCGGUCUGAUGAGUCCGUGAGGACGAAACAG

Variants of: B1
Experiment: self-cleavage, relative activity (ratio to wild type); higher = more cleavage; co-transcriptional

Variant	self-cleavage
G10A U32G	0.936
U19A G36A	0.369
A23G G27C	0.285
U14A G39A	0.359
G8C U13C	1.2
C3G G10U	0.638
U12C A41G	0.358
U12G A26C	0.475
A1G G36A	1.21
G5C A40C	0.325
C3U A23U	0.347
G5U G8U	0.81
A26U U28C	0.646
G36C A40U	0.346
C16A C20U	0.567
U12A U32A	0.698
G33U A37C	1.04
U13A C43U	0.614
U28C A37U	0.772
G31A A44U	0.861
C3A G36A	0.287
U32A G33C	0.846
U14C C30U	0.613
A6C C11G	0.958

Variant	self-cleavage
U19A G35U	0.373
U12G G45U	0.716
G4U C30A	0.4
C15U G45U	0.822
U24C A37C	1.02
A1G A23C	0.96
A1G A23U	0.424
C2G U21C	0.329
U21A G39U	0.301
C20U A34C	0.369
A34U C43G	0.315
A34U C43U	0.304
C3U A41U	0.378
G22A G33C	0.317
G5A C16A	1.56
U28G G33C	1.2
U24A G36C	0.362
A6C G35A	0.568
G4A U21C	0.373
G27C U32C	1.01
G27C C29A	0.414
U7C U21C	0.403
U21C C29G	0.507
G22U G25U	0.303

Variant	self-cleavage
A6G G36U	0.314
C3A G8U	0.902
G10U G36U	0.587
A6U A34C	0.651
G8U C29G	0.847
G5C C43G	0.33
A6G C38U	0.629
C11A A42C	0.284
U14C A41C	0.301
C30A A44G	0.819
G39C A44G	0.638
C11A U32C	1.06
G22A A41C	0.383
A1G U13A	1.96
A6C A26C	0.348
U24C A41U	0.408
C20U A37U	0.403
C30A C38A	0.386
A1U A6C	0.363
U24A C29G	0.79
G4U G31C	0.56
G27C G39A	0.302
C3G A37U	0.327
G35C G36A	0.504

Variant	self-cleavage
U9G G31U	0.51
G10A A26U	0.925
G17A G31A	0.875
C11A G35U	0.902
C11A G35A	0.981
G18U G31C	0.685
G8C A40C	0.428
C15G U21C	0.275
U14C G27A	0.602
C11U C15U	1.18
C2A G5U	0.319
U21G A23U	0.448
G10U G17A	0.957
U14C G22U	0.33
G36A A42G	0.25
G33C A44G	1.13
A34U G35C	0.631
G39A A42C	0.369
A1C U7A	0.29
C11G A34C	0.893
U19G G22C	0.308
U7C A26U	0.48
G22A U28G	0.37
U7C C16U	1.06

Variant	self-cleavage
C3A C16G	0.438
G5C G10U	0.64
C2G C15U	0.304
G17A C20A	0.327
A1C U14G	0.426
U12G U13G	0.848
G18C C30U	0.606
A23G G45C	0.33
G31U C38U	0.801
G8A C16G	1.03
A6U	0.696
A6G C30G	0.594
G10A A42G	0.288
C20A A37U	0.353
U9C G25A	0.312
C2G A26C	0.341
A1C C43G	0.285
G45C	0.844
G17A A42U	0.396
C3A G35A	0.376
U7C C30A	0.736
A40G C43A	0.339
G5C G25C	0.397
C20A A44C	0.366

Variant	self-cleavage
U28G G31U	0.932
G22C A34U	0.318
A23C C29U	0.337
U28A C30G	0.384
A1U C16U	0.431
U28C G33U	0.973
A1G C30A	1.3
G27U C29G	0.366
U24G A41C	0.322
U14A A34C	1.05
C11G A44C	0.769
C2A C11G	0.828
U19G A40C	0.294
A6U U19A	0.337
G4U G5C	0.352
G31C G35C	0.779
G31U G39U	0.353
A6U U13G	0.616
G10A C20G	0.303
G17C G22U	0.284
A26G G33U	0.344
U21G C43A	0.346
G4U G36C	0.313
G18U G36U	0.425

Variant	self-cleavage
U19C A34C	0.411
G4U G27C	0.35
G31U A44C	0.564
G31U A44G	1.64
U12A A40U	0.32
C16G A26U	0.433
U32C G39C	0.375
C2U C20A	0.63
U9G U14C	0.41
A6U G10A	0.75
C16U C30G	0.719
C20U G39C	0.362
G4A G25A	0.313
C2U A41C	0.35
U7G U28A	0.991
C15U C30U	0.735
G18U G33C	0.602
C30A G33U	0.995
A40U A44U	0.336
U14A C43G	0.334
U12G A42U	0.321
C3U U24C	0.956
C3U U24A	1.24
